Source: patent publication US7556938B1, “Nucleic acids encoding potassium channel interactors” (Millennium Pharmaceuticals, Inc., priority 1998, dated 2009)
Substitutions are numbered along the chain they refer to.

T1: rKv4.3N (Rattus norvegicus, UniProt Q62897)
T1 construct: expressed in transfected cells; host or cells: yeast HF7c (bait), mated with Y187 (fish)
T1 sequence (Q62897 1-180): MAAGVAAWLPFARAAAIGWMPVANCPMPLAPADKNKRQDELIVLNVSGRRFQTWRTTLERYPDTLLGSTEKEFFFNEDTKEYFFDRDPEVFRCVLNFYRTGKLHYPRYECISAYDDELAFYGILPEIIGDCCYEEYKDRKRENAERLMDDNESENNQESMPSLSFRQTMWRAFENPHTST

B1: KChIP2m: KChIP2 splice variant m (protein)
chain: MRGQGRKESLSESRDLDGSYDQLTGHPPGPSKKALKQRFLKLLPCCGPQALPSVSENSVEDEFELSTVCHRPEGLEQLQEQTKFTRRELQVLYRGFKNECPSGIVNEENFKQIYSQFFPQGDSSNYATFLFNAFDTNHDGSVSFEDFVAGLSVILRGTIDDRLSWAFNLYDLNKDGCITKEEMLDIMKSIYDMMGKYTYPALREEAPREHVESFFQKMDRNKDGVVTIEEFIESCQQDENIMRSMQLFDNVI
B2: KChIP2C: KChIP2 splice variant, rat KChIP2C (protein)
chain: B1 chain with F248S, D249P, N250L, V251L, I252N
B3: KChIP1l: KChIP1long splice variant of KChIP1 (protein)
chain: MGAVMGTFSSLQTKQRRPSKDIAWWYYQYQRDKIEDELEMTMVCHRPEGLEQLEAQTNFTKRELQVLYRGFKNECPSGVVNEDTFKQIYAQFFPHGDASTYAHYLFNAFDTTQTGSVKFEDFVTALSILLRGTVHEKLRWTFNLYDINKDGYINKEEMMDIVKAIYDMMGKYTYPVLKEDTPRQHVDVFFQKMDKNKDGIVTLDEFLESCQEDDNIMRSLQLFQNVM
B4: KChIP1N: N-terminal splice variant of KChIP1 (protein)
chain: MWAEGESEGLQTLGIVVVVCSSLKLLHYLGLIDLSDDKIEDELEMTMVCHRPEGLEQLEAQTNFTKRELQVLYRGFKNECPSGVVNEDTFKQIYAQFFPHGDASTYAHYLFNAFDTTQTGSVKFEDFVTALSILLRGTVHEKLRWTFNLYDINKDGYINKEEMMDIVKAIYDMMGKYTYPVLKEDTPRQHVDVFFQKMDKNKDGIVTLDEFLESCQEDDNIMRSLQLFQNVM
B5: KChIP4N3: KChIP4 splice variant KChIP4d (protein)
chain: MNVRRVESISAQLEEASSTGGFLYAQNSTKRSIKERLMKLLPCSAAKTSSPAIQNSVEDELEMATVRHRPEALELLEAQSKFTKKELQILYRGFKNECPSGVVNEETFKEIYSQFFPQGDSTTYAHFLFNAFDTDHNGAVSFEDFIKGLSILLRGTVQEKLNWAFNLYDINKDGYITKEEMLDIMKAIYDMMGKCTYPVLKEDAPRQHVETFFQKMDKNKDGVVTIDEFIESCQKDENIMRSMQLFENVI
B6: 8t: 8t polypeptide, splice variant of 9q (protein)
chain: MNRCPRRCRSPLGQAARSLYQLVTGSLSPDSVDDEFELSTVCHRPEGLEQLQEQTKFTRKELQVLYRGFKNECPSGIVNEENFKQIYSQFFPQGDSSTYATFLFNAFDTNHDGSVSFEDFVAGLSVILRGTVDDRLNWAFNLYDLNKDGCITKEEMLDIMKSIYDMMGKYTYPALREEAPREHVESFFQKMDRNKDGVVTIEEFIESCQKDENIMRSMQLFDNVI
B7: KChIP4N2: N-terminal splice variant of KChIP4 (protein)
chain: MNLEGLEMIAVLIVIVLFVKLLEQFGLIEAGLEDSVEDELEMATVRHRPEALELLEAQSKFTKKELQILYRGFKNECPSGVVNEETFKEIYSQFFPQGDSTTYAHFLFNAFDTDHNGAVSFEDFIKGLSILLRGTVQEKLNWAFNLYDINKDGYITKEEMLDIMKAIYDMMGKCTYPVLKEDAPRQHVETFFQKMDKNKDGVVTIDEFIESCQKDENIMRSMQLFENVI
B8: KChIP4N1: KChIP4 splice variant KChIP4a (protein)
chain: MLTLEWESEGLQTVGIVVIICASLKLLHLLGLIDFSEDSVEDELEMATVRHRPEALELLEAQSKFTKKELQILYRGFKNECPSGVVNEETFKEIYSQFFPQGDSTTYAHFLFNAFDTDHNGAVSFEDFIKGLSILLRGTVQEKLNWAFNLYDINKDGYITKEEMLDIMKAIYDMMGKCTYPVLKEDAPRQHVETFFQKMDKNKDGVVTIDEFIESCQKDENIMRSMQLFENVI
B9: KChIP2l: KChIP2 splice variant, rat KChIP2l (protein)
chain: MRGQGRKESLSESRDLDGSYDQLTGHPPGPSKKALKQRFLKLLPCCGPQALPSVSETLAAPASLRPHRPRPLDPDSVEDEFELSTVCHRPEGLEQLQEQTKFTRRELQVLYRGFKNECPSGIVNEENFKQIYSQFFPQGDSSNYATFLFNAFDTNHDGSVSFEDFVAGLSVILRGTIDDRLSWAFNLYDLNKDGCITKEEMLDIMKSIYDMMGKYTYPALREEAPREHVESFFQKMDRNKDGVVTIEEFIESCQQDENIMRSMQLFDNVI
B10: KChIP2s: KChIP2 splice variant, human KChIP2s (protein)
chain: MRGQGRKESLSDSRDLDGSYDQLTDSVDDEFELSTVCHRPEGLEQLQEQTKFTRKELQVLYRGFKNECPSGIVNEENFKQIYSQFFPQGDSSTYATFLFNAFDTNHDGSVSFEDFVAGLSVILRGTVDDRLNWAFNLYDLNKDGCITKEEMLDIMKSIYDMMGKYTYPALREEAPREHVESFFQKMDRNKDGVVTIEEFIESCQKDENIMRSMQLFDNVI

Assays:
rKv4.3N = target: T1, rKv4.3N; assay: Yeast two-hybrid binding and specificity test, Kv4.3 N-terminal bait
Description: The first 180 amino acids of rKv4.3 (described in Serdio P. et al. (1996) J. Neurophys 75:2174-2179) were amplified by PCR and cloned in frame into pGBT9 resulting in plasmid pFWA2, (hereinafter “bait”). This bait was transformed into the two-hybrid screening strain HF7c and tested for expression and self-activation. The bait was validated for expression by Western blotting.
Two-hybrid screens were carried out essentially as described in Bartel, P. et al. (1993) “Using the Two-Hybrid System to Detect Polypeptide-Polypeptide Interactions” in Cellular Interactions in Development: A Practical Approach, Hartley, D. A. ed. Oxford University Press, Oxford, pp. 153-179, with a bait-library pair of rkv4.3 bait-rat mid brain library. A filter disk beta-galactosidase (beta-gal) assay was performed essentially as previously described (Brill et al. (1994) Mol. Biol. Cell. 5:297-312). Clones that were positive for both reporter gene activity (His and beta-galactosidase) were scored and fish, plasmids were isolated from yeast, transformed into E. coli strain KC8, DNA plasmids were purified and the resulting plasmids were sequenced by conventional methods (Sanger F. et al. (1977) PNAS, 74: 5463-67).
Positive interactor clones were subjected to a binding specificity test where they were exposed to a panel of related and unrelated baits by a mating scheme previously described (Finley R. L. Jr. et al. (1994) PNAS, 91(26):12980-12984). Briefly, positive fish plasmids were transformed into Y187 and the panel of baits were transformed into HF7c. Transformed fish and bait cells were streaked out as stripes on selective medium plates, mated on YPAD plates, and tested for reporter gene activity.

rKv4.3 = assay: Two-electrode voltage clamp of Kv4.3 currents in Xenopus oocytes co-injected with KChIP cRNA; assay type: cell-based, rat; conditions: for fold increase of inactivation time constant of Kv4.3: versus Kv4.3 alone; for effect on Kv4.3 current: co-injected with Kv4.3 cRNA
Chain of rKv4.3 (Q62897 1-487 limits assumed): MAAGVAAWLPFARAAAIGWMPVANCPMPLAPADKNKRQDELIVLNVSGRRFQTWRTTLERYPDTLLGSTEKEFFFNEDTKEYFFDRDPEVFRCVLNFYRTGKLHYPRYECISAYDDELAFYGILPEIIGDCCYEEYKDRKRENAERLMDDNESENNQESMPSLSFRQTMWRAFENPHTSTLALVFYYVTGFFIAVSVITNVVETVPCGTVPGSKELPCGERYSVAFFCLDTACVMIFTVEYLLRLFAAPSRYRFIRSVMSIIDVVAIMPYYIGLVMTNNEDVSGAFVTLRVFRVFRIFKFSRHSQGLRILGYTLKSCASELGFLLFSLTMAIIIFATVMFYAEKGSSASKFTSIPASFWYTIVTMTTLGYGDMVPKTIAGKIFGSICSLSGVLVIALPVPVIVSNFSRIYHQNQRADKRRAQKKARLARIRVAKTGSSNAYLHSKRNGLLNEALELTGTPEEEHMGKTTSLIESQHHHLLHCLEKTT
Description: Frogs underwent no more than two surgeries and surgeries were performed by well established techniques. Frogs were anesthetized with ice. Total cRNA (1-10 ng) was injected into stage IV Xenopus oocytes that were harvested the previous day. The Xenopus oocytes were incubated in ND96 containing (in mM) 96 NaCl, 2 KCl, 1.8 CaCl2, 1 MgCl2, 5 HEPES, pH 7.6, plus (Gentamycin 50 μg/ml) at 18° C. Xenopus oocytes were studied 3-7 days after injection. The two-electrode voltage-clamp recordings were performed in ND96 solution using a TURBO TEC 03 Clamp Amplifier (ALA Scientific Instruments, Westbury, N.Y.). Both electrodes were filled with 3 M KCl and had electrode resistances ranging from 0.2-1 MOhm. The current signals were filtered at 1000 Hz before transferred on a PC (Gateway, Calif.) using the PULSE software (HEKA, Germany).
To investigate whether the modulatory effects of these KChIPs are specific for Kv4 channels, KChIP1 was coexpressed with Kv1.4 and Kv2.1 in Xenopus oocytes. Xenopus oocytes were injected with 1-3 ng/oocyte of cRNA which was prepared using standard in vitro transcription techniques (Sambrook et al. 1989. Molecular Cloning: a laboratory manual, Cold Spring Harbor Press). Currents in Xenopus oocytes were measured with a two-electrode voltage clamp. […] As a final control for the KChIP effects and to verify that the KChIPs' effects on Kv4 currents are independent of expression system, the above kinetic analyses were repeated after expressing Kv4.3 and KChIP mRNAs in Xenopus oocytes. The effects KChIP1 on for Kv4.3 in the Xenopus oocyte system were strikingly similar to those on Kv4.2 in CHO cells (Table 1).

[1] = Kv4.3 co-expressed with the KChIP

Row | Molecule | Inactivation time constant (ms ± SEM) (rKv4.3; [1]) [ms] | Peak amplitude (μA ± SEM) (rKv4.3; [1]) [μA] | effect on Kv4.3 current (rKv4.3) | further results
1 | B1 | 70 ± 2 | 40 ± 4 |  | binding to rKv4.3N in yeast two-hybrid assay (rKv4.3N): able to bind to the Kv4.3 polypeptide
2 | B2 | 74 ± 4 | 44 ± 5 |  | 
3 | B3 | 100 ± 8 | 55±7 |  | fold increase of inactivation time constant of Kv4.3 (rKv4.3): ~2 fold
4 | B4 | 1778 ± 136 | 18±3 | did not affect peak amplitude of Kv4.3 | fold increase of inactivation time constant of Kv4.3 (rKv4.3): 32 fold
5 | B5 | 85 ± 4 | 43 ± 4 | increased the peak amplitude of Kv4.3 | 
6 | B6 |  |  |  | binding to rKv4.3N in yeast two-hybrid assay (rKv4.3N): able to bind to the Kv4.3 polypeptide
7 | B7 |  |  |  | Peak amplitude (μA ± SEM) (rKv4.3; KChIP4N2 cRNA 1× (stock)): 0 ± 0 μA; Peak amplitude (μA ± SEM) (rKv4.3; KChIP4N2 cRNA diluted 5×): 4 ± 1 μA; Inactivation time constant (ms ± SEM) (rKv4.3; KChIP4N2 cRNA diluted 30×): 681 ± 28 ms; Peak amplitude (μA ± SEM) (rKv4.3; KChIP4N2 cRNA diluted 30×): 25 ± 2 μA; Inactivation time constant (ms ± SEM) (rKv4.3; KChIP4N2 cRNA diluted 120×): 193 ± 13 ms; Peak amplitude (μA ± SEM) (rKv4.3; KChIP4N2 cRNA diluted 120×): 16 ± 3 μA; Inactivation time constant (ms ± SEM) (rKv4.3; KChIP4N2 cRNA diluted 500×): 84 ± 5 ms; Peak amplitude (μA ± SEM) (rKv4.3; KChIP4N2 cRNA diluted 500×): 9 ± 4 μA; effect on inactivation kinetics of Kv4.3 (rKv4.3; high concentrations of KChIP4N2 (e.g. 5× dilution of stock)): converted the fast-inactivating Kv4.3 current into an almost non-inactivating current
8 | B8 | 112 ± 7 | 6 ± 1 | statistically had no significant (ns) effect on Kv4.3 amplitude | 
9 | B9 | 87 ± 4 | 51 ± 4 |  | 
10 | B10 | 90 ± 3 | 44 ± 3 |  | 
